Source: patent US12031981B2, “Method for electronic detection and quantification of antibodies” (Arizona Board of Regents on behalf of Arizona State …, priority 2018, dated 2024)

Target: RGD peptide
Assay: Single molecule conductance of integrin binding RGD peptide on electrodes
Conditions: one ligand binding site

Chain of RGD peptide (P06756 31-889 limits assumed): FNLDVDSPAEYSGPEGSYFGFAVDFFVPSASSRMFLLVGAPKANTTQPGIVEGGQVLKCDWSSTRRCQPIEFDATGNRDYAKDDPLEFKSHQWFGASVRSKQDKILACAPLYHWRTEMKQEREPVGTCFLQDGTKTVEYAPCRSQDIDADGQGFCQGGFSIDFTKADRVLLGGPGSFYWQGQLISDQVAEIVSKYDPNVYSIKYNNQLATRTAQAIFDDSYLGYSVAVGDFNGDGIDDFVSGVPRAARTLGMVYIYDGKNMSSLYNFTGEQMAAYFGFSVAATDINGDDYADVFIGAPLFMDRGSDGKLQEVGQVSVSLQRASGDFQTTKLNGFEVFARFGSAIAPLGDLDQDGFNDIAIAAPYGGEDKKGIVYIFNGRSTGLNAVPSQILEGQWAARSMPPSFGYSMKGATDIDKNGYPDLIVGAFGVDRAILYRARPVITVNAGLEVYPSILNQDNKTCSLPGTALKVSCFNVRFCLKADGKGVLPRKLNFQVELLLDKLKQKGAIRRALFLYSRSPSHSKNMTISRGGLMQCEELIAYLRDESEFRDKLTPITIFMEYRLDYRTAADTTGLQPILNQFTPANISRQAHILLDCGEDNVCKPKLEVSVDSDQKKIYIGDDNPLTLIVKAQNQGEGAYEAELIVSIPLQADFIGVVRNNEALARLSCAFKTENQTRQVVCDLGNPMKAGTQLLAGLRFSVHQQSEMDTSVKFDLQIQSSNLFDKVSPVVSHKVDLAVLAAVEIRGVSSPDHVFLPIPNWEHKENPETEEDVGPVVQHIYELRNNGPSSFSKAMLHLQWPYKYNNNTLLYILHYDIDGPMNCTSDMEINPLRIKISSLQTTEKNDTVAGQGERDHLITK
Chain of RGD peptide (P06756 891-1048 partner limits assumed): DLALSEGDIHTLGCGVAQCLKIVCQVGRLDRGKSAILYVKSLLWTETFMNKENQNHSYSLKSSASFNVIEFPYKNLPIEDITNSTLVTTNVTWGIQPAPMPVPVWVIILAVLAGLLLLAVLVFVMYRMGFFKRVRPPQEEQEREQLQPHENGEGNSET
Chain of RGD peptide (P05106 27-788, further chain): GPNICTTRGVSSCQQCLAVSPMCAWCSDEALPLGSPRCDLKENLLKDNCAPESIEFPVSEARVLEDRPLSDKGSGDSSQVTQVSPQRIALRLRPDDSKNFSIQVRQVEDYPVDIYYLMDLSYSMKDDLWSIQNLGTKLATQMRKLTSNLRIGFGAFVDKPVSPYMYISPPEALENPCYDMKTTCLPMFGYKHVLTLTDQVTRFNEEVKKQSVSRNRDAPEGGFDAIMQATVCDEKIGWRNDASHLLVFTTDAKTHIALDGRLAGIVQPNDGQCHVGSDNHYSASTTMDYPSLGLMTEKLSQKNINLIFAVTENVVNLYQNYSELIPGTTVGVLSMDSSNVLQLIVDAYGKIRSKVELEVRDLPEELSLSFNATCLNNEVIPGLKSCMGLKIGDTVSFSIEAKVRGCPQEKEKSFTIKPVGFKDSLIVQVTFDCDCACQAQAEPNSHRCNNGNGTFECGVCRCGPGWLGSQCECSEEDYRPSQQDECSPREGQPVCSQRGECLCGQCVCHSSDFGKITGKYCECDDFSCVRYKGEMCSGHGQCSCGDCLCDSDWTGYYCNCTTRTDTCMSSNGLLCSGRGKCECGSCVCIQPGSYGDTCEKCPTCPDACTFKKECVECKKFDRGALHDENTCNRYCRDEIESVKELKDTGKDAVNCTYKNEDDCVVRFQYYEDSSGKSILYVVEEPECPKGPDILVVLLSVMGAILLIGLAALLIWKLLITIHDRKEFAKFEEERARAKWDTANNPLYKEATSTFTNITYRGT

Integrin: αvβ3 integrin binding RGD peptide; only one ligand binding site
conductance G, single peak of distribution: 0.3 nS
